In patent KR20210063070A (dated 2021):

What was measured:
[1] = target: T1, recombinant mouse B7-H3 protein with C-terminal His tag (Sino Biological, 50973-M08H) (mouse, UniProt Q8VE98 29-244); experiment: ELISA, IgG on coated recombinant mouse B7-H3-His
T1 construct: Bought; also called 마우스 B7-H3
T1 sequence (looked up): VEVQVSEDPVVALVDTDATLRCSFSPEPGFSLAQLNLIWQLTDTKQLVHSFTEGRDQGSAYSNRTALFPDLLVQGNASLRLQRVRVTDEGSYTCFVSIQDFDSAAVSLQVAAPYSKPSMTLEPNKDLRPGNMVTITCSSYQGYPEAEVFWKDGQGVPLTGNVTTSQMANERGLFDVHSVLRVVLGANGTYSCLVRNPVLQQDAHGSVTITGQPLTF

[2] = target: T2, mouse B7-H3 expressed on the surface of mouse cancer cell lines (CT26, B16F10, TC-1) (mouse, UniProt Q8VE98 29-316); experiment: flow cytometry on CT26, B16F10 and TC-1 cells, 10 ㎍/㎖
T2 construct: whole, on cells; also called 세포 표면 발현 마우스 B7-H3
T2 sequence (looked up): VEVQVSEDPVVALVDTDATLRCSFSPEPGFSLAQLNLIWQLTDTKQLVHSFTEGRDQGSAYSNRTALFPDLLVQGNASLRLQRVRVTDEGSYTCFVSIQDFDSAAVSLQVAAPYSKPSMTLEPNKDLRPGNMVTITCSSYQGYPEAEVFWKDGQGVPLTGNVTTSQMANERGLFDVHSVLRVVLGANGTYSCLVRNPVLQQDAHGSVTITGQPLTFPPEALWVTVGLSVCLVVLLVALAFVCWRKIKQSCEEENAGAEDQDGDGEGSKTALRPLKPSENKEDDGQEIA

[3] = target: T3, human B7-H3 expressed on the surface of human cancer cell lines (human, UniProt Q5ZPR3 29-534); experiment: flow cytometry on human cancer cell lines that express B7-H3
T3 construct: whole, on cells; also called 세포 표면 발현 B7-H3; CD276
T3 sequence (looked up): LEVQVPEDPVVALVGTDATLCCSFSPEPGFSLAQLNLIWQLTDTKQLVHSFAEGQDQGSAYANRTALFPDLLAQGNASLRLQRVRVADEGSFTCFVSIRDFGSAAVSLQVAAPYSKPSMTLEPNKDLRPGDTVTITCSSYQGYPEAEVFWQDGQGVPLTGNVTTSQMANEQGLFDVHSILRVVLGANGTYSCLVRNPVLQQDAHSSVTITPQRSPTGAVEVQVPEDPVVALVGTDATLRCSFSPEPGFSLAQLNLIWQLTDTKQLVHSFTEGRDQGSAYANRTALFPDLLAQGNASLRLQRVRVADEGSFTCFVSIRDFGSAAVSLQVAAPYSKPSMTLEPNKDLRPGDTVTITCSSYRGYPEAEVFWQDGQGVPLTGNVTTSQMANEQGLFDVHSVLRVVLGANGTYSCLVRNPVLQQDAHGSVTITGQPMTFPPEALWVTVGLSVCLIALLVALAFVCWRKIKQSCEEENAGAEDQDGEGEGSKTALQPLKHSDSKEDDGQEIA

Measured: binding result

B1: anti-B7-H3 antibody B5 (full IgG form) (antibody, V domains shown)
VH: EVQLLESGGGLVQPGGSLRLSCAASGFTFSDYAMSWVRQAPGKGLEWVSSISSGSGSIYYADSVKGRFTISRDNSKNTLYLQMNSLRAEDTAVYYCAKNLIPLDYWGQGTLVTVSS
VL: QSVLTQPPSASGTPGQRVTISCSGSSSNIGSNAVSWYQQLPGTAPKLLIYYNSHRPSGVPDRFSGSKSGTSASLAISGLRSEDEADYYCGSWDASLNAYVFGGGTKLTVLG
binds: all assays above

B2: anti-B7-H3 antibody D8G (full IgG form) (antibody, V domains shown)
VH: EVQLLESGGGLVQPGGSLRLSCAASGFTFSSYSMSWVRQAPGKGLEWVSGIYSDGSNTYYADSVKGRFTISRDNSKNTLYLQMNSLRAEDTAVYYCAKMLHRFDYWGQGTLVTVSS
VL: QSVLTQPPSASGTPGQRVTISCSGSSSNIGSNSVTWYQQLPGTAPKLLIYADSQRPSGVPDRFSGSKSGTSASLAISGLRSEDEADYYCGTWDSSLNAYVFGGGTKLTVLG
binds: all assays above

B3: anti-B7-H3 antibody F6V (full IgG form) (antibody, V domains shown)
VH: EVQLLESGGGLVQPGGSLRLSCAASGFTFSDYAMSWVRQAPGKGLEWVSGISPGGSNTYYADSVKGRFTISRDNSKNTLYLQMNSLRAEDTAVYYCAKDAWIARLLLFDYWGQGTLVTVSS
VL: QSVLTQPPSASGTPGQRVTISCSGSSSNIGSNAVTWYQQLPGTAPKLLIYYNNKRPSGVPDRFSGSKSGTSASLAISGLRSEDEADYYCGTWDDSLSGYVFGGGTKLTVLG
binds: all assays above

B4: anti-B7-H3 antibody C4I (full IgG form) (antibody, V domains shown)
VH: EVQLLESGGGLVQPGGSLRLSCAASGFTFSGYYMSWVRQAPGKGLEWVSLISPSSGSIYYADSVKGRFTISRDNSKNTLYLQMNSLRAEDTAVYYCAKGLTKFDYWGQGTLVTVSS
VL: QSVLTQPPSASGTPGQRVTISCTGSSSNIGSNDVSWYQQLPGTAPKLLIYANSHRPSGVPDRFSGSKSGTSASLAISGLRSEDEADYYCGSWDDSLSGYVFGGGTKLTVLG
binds: all assays above

B5: anti-B7-H3 antibody 10F11 (full IgG form) (antibody, V domains shown)
VH: EVQLLESGGGLVQPGGSLRLSCAASGFTFSSYGMSWVRQAPGKGLEWVSGIYSGGSSKYYADSVKGRFTISRDNSKNTLYLQMNSLRAEDTAVYYCAKNRLRFDYWGQGTLVTVSS
VL: QSVLTQPPSASGTPGQRVTISCTGSSSNIGSNSVTWYQQLPGTAPKLLIYSDSHRPSGVPDRFSGSKSGTSASLAISGLRSEDEADYYCGTWDASLNAYVFGGGTKLTVLG
binds: all assays above
